Experimental data published in patent US20150004637A1, “SYSTEMS AND METHODS FOR IMAGING AT HIGH SPATIAL AND/OR TEMPORAL PRECISION” (President and Fellows of Harvard College, priority 2011, published 2015).
“Also recorded” adds a separate entry of the source.

Columns and labels:
[1] = test system: cultured rat hippocampal neurons; test: Optical recording of action potentials in cultured neurons; type: cell-based
Description: Arch was tested as a voltage indicator in cultured rat hippocampal neurons, using viral delivery (Methods 10-11). […] Individual spikes were accompanied by clearly identifiable increases of whole-field fluorescence (FIG. 11B). Preferentially weighting pixels whose intensity co-varied with the whole-field fluorescence led to an about 74% improvement in SNR (FIG. 11C). This training procedure made no use of the electrical recording. Training the pixel-weighting algorithm on the electrical recording led to a further 5% increase in SNR. (FIG. 11D).
(11) Neuronal cell culture. E18 rat hippocampi were purchased from BrainBits and mechanically dissociated in the presence of 1 mg/mL papain (Worthington) before plating at 5,000 to 30,000 cells per dish on poly-L-lysine and Matrigel-coated (BD Biosciences) glass-bottom dishes. […] Cells were incubated in N+ medium (100 mL Neurobasal medium, 2 mL B27 supplement, 0.5 mM glutamine, 25 micromolar glutamate, penicillin-streptomycin) for 3 hours. An additional 300 microliter virus medium was added to the cells and incubated overnight, then brought to a final volume of 2 mL N+ medium. After two days, cells were fed with 1.5 mL N+ medium. Cells were fed with 1 mL N+ medium without glutamate at 4 DIV, and fed 1 mL every 3-4 days after. Cells were allowed to grow until 10-14 DIV. […]
Whole-cell current clamp recordings were obtained from mature neurons under the same conditions used for HEK cells recordings. Series resistance and pipette capacitance were corrected. Only neurons having resting potentials between −50 and −70 mV were used in the analysis.
(12) Spike sorting. A spike identification algorithm was developed that could be applied either to electrically recorded V(t) or to optically determined VFL(t). The input trace was convolved with a reference spike. Sections of the convolved waveform that crossed a user-defined threshold were identified as putative spikes. Multiple spikes that fell within 10 ms (a consequence of noise-induced glitches near threshold) were clustered and identified as one.

[2] = test system: cultured mouse hippocampal neurons; test: Optopatch: optical stimulation and recording in neurons; type: cell-based; details: red light 230 W/cm^2, 640 nm
Text: In another example, a genetic construct termed “Optopatch” was used to provide simultaneous optical stimulation and recording from neurons. One embodiment of the Optopatch construct consisted of a bicistronic vector for co-expression of channelrhopsin 64 (ChR64)-mOrange II and archaerhodopsin 3 (Arch)-eGFP. This construct is depicted in FIG. 18A. The abbreviations used in the figure may be interpreted as follows. ss: Signaling sequence designed to improve the trafficking of Arch to the plasma membrane; Arch: Archaerhodopsin 3; eGFP: Enhanced green fluorescent protein; ER2: Endoplasmic reticulum export motif, designed to improve the trafficking of Arch to the plasma membrane; P2A: porcine teschovirus-1 2A sequence, a ribosomal skip-site leading to expression of two proteins from a single mRNA transcript; ChR64: Channelrhodopsin 64, a blue light-activated ion channel; mOr2: mOrange 2 fluorescent protein. […]
Whole-field illumination with pulses of blue light (20 mW/cm^2, 10 ms, 488 nm, repeated at 10 Hz) led to flashes of red fluorescence (em: 660-760 nm), detected on a high speed EMCCD camera. […] The optically-recorded fluorescence waveform coincided closely with the electrically recorded waveform on a single-trial basis (as shown in FIG. 18C), with a noise in the optically recorded voltage of 1.1 mV at a 1 kHz acquisition rate.

B1: Archaerhodopsin 3 (protein)
chain: MDPIALQAGYDLLGDGRPETLWLGIGTLLMLIGTFYFLVRGWGVTDKDAREYYAVTILVPGIASAAYLSMFFGIGLTEVTVGGEMLDIYYARYADWLFTTPLLLLDLALLAKVDRVTIGTLVGVDALMIVTGLIGALSHTAIARYSWWLFSTICMIVVLYFLATSLRSAAKERGPEVASTFNTLTALVLVLWTAYPILWIIGTEGAGVVGLGIETLLFMVLDVTAKVGFGFILLRSRAILGDTEAPEPSAGADVSAAD
modifications: Halorubrum sodomense
notes: Microbial rhodopsin from Halorubrum sodomense, light-driven proton pump used as fluorescent voltage indicator; experiments used an Arch-eGFP fusion
optical signal-to-noise ratio of single electrically triggered action potentials [1]: greater than 10
increase in fluorescence after addition of supplemental retinal ([1]; 10 μM retinal, over 30 minutes, neuron depolarized with CCCP): 30-60%
signal-to-noise ratio in the fluorescence (spike amplitude:baseline noise) ([1]; 2 kHz frame rate, single trial): about 10.5
light-induced outward photocurrent in neurons ([1]; I=1800 W/cm^2, total internal reflection mode): about 10 pA
shift of resting potential by photocurrent ([1]; current-clamp, I=1800 W/cm^2): up to −20 mV
false-positive rate of spike identification ([1]; n=269 spikes): 0.7%
spikes correctly identified by spike-finding algorithm ([1]; n=269 spikes, versus simultaneously recorded membrane potential): 99.6%
r.m.s. deviation between fluorescence and voltage ([1]; pixel weights from correlation to electrophysiology data): 4.0 mV
r.m.s. deviation of fluorescence from electrophysiology data ([1]; pixel weights from correlation to whole-field intensity): 4.2 mV
r.m.s. deviation of fluorescence from electrophysiology data ([1]; whole-field fluorescence, single trial, 500 frames/s): 7.3 mV
outward photocurrent mediated by Arch ([2]; n=6 cells): 34±7 pA
hyperpolarization of cells by Arch photocurrent ([2]; n=8 cells): 6.1±1.1 mV

B2: Arch D95N: Archaerhodopsin 3 with aspartic acid 95 mutated to asparagine; non-pumping voltage indicator (protein, UniProt P96787 7-258, looked up, variant D95N)
Archaerhodopsin-3: QAGYDLLGDGRPETLWLGIGTLLMLIGTFYFLVRGWGVTDKDAREYYAVTILVPGIASAAYLSMFFGIGLTEVTVGGEMLDIYYARYANWLFTTPLLLLDLALLAKVDRVTIGTLVGVDALMIVTGLIGALSHTAIARYSWWLFSTICMIVVLYFLATSLRSAAKERGPEVASTFNTLTALVLVLWTAYPILWIIGTEGAGVVGLGIETLLFMVLDVTAKVGFGFILLRSRAILGDTEAPEPSAGADVSAAD
effect of illumination on membrane potential / spiking in neurons ([1]; I=1800 W/cm^2, λ=640 nm): did not perturb membrane potential; also recorded: no effect of illumination on spiking or resting potential
